Assay results taken from patent US20140120109A1 (Regeneron, published 2014).
Numbering of substitutions follows the chain as printed. Names and notes keep the numbering of the source.

Experiments:
[1] = target: T1, mouse TL1A, soluble, CHO-expressed, residues 76-252 of SEQ ID NO:250 with N-terminal His6-tag (mouse, UniProt Q5UBV8 76-252); experiment: SPR 25C, mAb captured
T1 construct: also called mTL1A; mTL1A (CHO)
T1 sequence: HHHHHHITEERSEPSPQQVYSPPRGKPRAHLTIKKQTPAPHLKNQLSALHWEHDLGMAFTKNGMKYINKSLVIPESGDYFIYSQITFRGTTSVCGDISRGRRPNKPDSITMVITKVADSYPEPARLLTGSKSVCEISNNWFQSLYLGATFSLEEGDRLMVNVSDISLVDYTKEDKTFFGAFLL
Outline: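 Biacore T100 SPR with captured mAb and soluble TL1A/Fhm analyte; ka and kd fitted to a 1:1 model assuming monomeric TL1A. KD = kd/ka; t1/2 (min) = ln2/(60·kd).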

[2] = target: T2, human TL1A, soluble, CHO-expressed, residues 72-251 of SEQ ID NO:244 with N-terminal His6-tag (human, UniProt O95150 72-251); experiment: cell-based or functional assay
T2 sequence: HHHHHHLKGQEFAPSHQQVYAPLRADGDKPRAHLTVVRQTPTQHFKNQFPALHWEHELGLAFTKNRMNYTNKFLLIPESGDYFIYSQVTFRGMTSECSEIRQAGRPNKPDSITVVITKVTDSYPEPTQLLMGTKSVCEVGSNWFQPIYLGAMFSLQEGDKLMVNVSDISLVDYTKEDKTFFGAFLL

[3] = target: T3, Fhm, hTL1A(Q167R), soluble, CHO-expressed, residues 72-251 of SEQ ID NO:246 (human, UniProt O95150 72-251); experiment: ELISA, blocks FHM (150 pM) binding hDR3-Fc
T3 construct: also called Fhm (CHO); FHM (CHO)
T3 chain: T2 sequence with Q102R
Procedure: (§1) The ability of antibodies to block human TL1A binding to its cognate receptors, the DR3 and DcR3 receptors, was measured using a competition sandwich ELISA. In addition, blocking of a human TL1A variant FHM (human TL1A Q167R) and the cynomolgus monkey (Macaca fascicularis) TL1A (MfTL1A) protein binding to the human DR3 or DcR3 receptors was measured in the same manner. Constant amounts of biotinylated human TL1A or FHM (both expressed with a 6-His tag in CHO cells) or biotinylated MfTL1A (expressed in CHO cells) were separately titrated with varying amounts of antibodies. The antibody-protein complexes were incubated in solution (1 hr, 25° C.) and then transferred to microtiter plates coated with human DR3 (hDR3) or human DcR3 (hDcR3) expressed as human IgG1 Fc fusion proteins. After one hour at 25° C. the wells were washed, and bound human or monkey TL1A was detected with streptavidin conjugated with horseradish peroxidase (HRP). Wells were developed with a TMB solution to produce a colorimetric reaction and quenched with aqueous sulfuric acid before reading absorbance at 450 nm on a Perkin-Elmer Victor X5 plate reader. A sigmoidal dose-response curve was fit to the data using the Prism™ data analysis package. […] Both fully human anti-hTL1A mAbs and comparator antibodies, i.e., control mAb1 (an anti-hTL1A antibody with heavy and light chain variable domains having the amino acid sequences corresponding to SEQ ID NOS:21 and 27, respectively, of US 2009/0280116) and control mAb3 (an anti-hTL1A antibody with heavy and light chain variable domains having the amino acid sequences corresponding to SEQ ID NOS:57 and 48, respectively, of US 2009/0280116), were included in the study. NB: No binding under the conditions tested; NT: Not tested. Concentrations of biotinylated soluble ligands: (1) 150 pM; (2) 500 pM; (3) 10 pM; and (4) 50 pM.

[4] = target: T3, Fhm, hTL1A(Q167R), soluble, …; experiment: ELISA, blocks FHM (10 pM) binding hDcR3-Fc
Procedure: as §1

[5] = target: T4, full length rat TL1A expressed on HEK293 cells (rat, UniProt Q8K3Y7 1-252); experiment: cell-based or functional assay
T4 sequence: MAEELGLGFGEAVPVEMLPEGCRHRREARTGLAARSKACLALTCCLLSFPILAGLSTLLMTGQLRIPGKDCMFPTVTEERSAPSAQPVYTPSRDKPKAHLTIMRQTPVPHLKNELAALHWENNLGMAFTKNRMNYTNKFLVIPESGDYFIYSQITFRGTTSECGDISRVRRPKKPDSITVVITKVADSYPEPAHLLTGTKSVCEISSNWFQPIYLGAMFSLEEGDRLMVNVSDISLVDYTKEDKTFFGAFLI

B1: H4H1805N (antibody, human IgG4 S228P, V domains shown)
VH: QVQLQQWGAGLLKPSETLSLTCAVYGGSFTGFYWSWIRQPPGKGLEWIGEINHRGNTNYNPSLKSRVTMSVDTSKNQFSLNMISVTAADTAMYFCASPFYDFWSGSDYWGQGTLVTVSS
VL: DIMLTQTPLTSPVTLGQPASISCKSSQSLVHSDGNTYLSWLQQRPGQPPRLLFYKISNRFSGVPDRFSGSGAGTDFTLKISRVEAEDVGVYYCMQATQFPLTFGGGTKVEIK
notes: human IgG4(S108P) form of H2M1805N
- binding result [1]: no binding (tested: up to 100 nM)
- % Blocking IFN-g, D1, 1 ug/ml mAb [2]: 100%
- % Blocking IFN-g, D1, 3 ug/ml mAb [2]: 100%
- % Blocking IFN-g, D2, 1 ug/ml mAb [2]: 100%
- % Blocking IFN-g, D2, 3 ug/ml mAb [2]: 100%
- % Blocking IFN-g, D3, 1 ug/ml mAb [2]: 90%
- % Blocking IFN-g, D3, 3 ug/ml mAb [2]: 95%
- % Blocking IFN-g, D4, 1 ug/ml mAb [2]: 100%
- % Blocking IFN-g, D4, 3 ug/ml mAb [2]: 100%
- % Blocking IFN-g, D5, 1 ug/ml mAb [2]: 100%
- % Blocking IFN-g, D5, 3 ug/ml mAb [2]: 80%
- % Blocking IFN-g, D6, 1 ug/ml mAb [2]: 100%
- % Blocking IFN-g, D6, 3 ug/ml mAb [2]: 100%
- % Blocking IFN-g, D7, 1 ug/ml mAb [2]: 100%
- % Blocking IFN-g, D7, 3 ug/ml mAb [2]: 100%
- % Blocking IFN-g, D8, 1 ug/ml mAb [2]: 100%
- % Blocking IFN-g, D8, 3 ug/ml mAb [2]: 100%
- % Blocking IFN-g, D9, 1 ug/ml mAb [2]: 90%
- % Blocking IFN-g, D9, 3 ug/ml mAb [2]: 70%
- % Blocking IFN-g, D10, 1 ug/ml mAb [2]: 100%
- % Blocking IFN-g, D10, 3 ug/ml mAb [2]: 100%

B2: H4H1818N (antibody, human IgG4 S228P, V domains shown)
VH: RLQLVESGGGLVKPGGSLKLSCAASGFTISDYYMSWIRQAPGKGLEWVSYIGGSGSTIYYADSVKGRFTISRDNAKNSLYLQMNSLRAEDTAVYYCAREDADSYYYYGMDVWGQGTTVTVSS
VL: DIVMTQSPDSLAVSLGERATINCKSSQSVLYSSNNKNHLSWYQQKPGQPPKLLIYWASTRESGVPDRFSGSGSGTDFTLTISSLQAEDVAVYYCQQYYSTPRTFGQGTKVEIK
notes: human IgG4(S108P) form of H2M1818N
- IC50 [3]: 0.202 nM

B3: H4H1745P (antibody, human IgG4 S228P, V domains shown)
VH: EVQLVESGGGLVQPGGSLRLSCAASGFTFSSYAMTWVRQAPGKGLEWVSGVSGRGGSTYYADSVKGRFTISRDNSKNTLYLQMNSLRAEDTAVYYCAYWDISSFDYWGQGTLVTVSS
VL: DIQLTQSPSFLSASVGDRVTITCWASQGISTYLAWYQQKPGKTPKLLIYAASTLQSGVPSRFSGSGSGTDFTLTISSLQPEDFATYYCQQFNSYPLTFGGGTKVEIK
- IC50 [4]: 0.085 nM
- IC50 [3]: 0.044 nM

B4: H4H1704N (antibody, human IgG4 S228P, V domains shown)
VH: EVQLVESGGGLVQPGGSLRLSCAVSGFTFSSYWMSWVRQAPGKGLEWVANIKEDGSEKNYVDSVKGRFTLSSDNAKNSLYLQMNSLRAEDTAVYYCAREDYDSYYKYGMDVWGQGTAVIVSS
VL: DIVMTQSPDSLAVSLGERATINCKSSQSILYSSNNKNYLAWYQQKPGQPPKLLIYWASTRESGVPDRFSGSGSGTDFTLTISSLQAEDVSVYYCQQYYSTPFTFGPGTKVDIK
notes: human IgG4(S108P) form of H2M1704N
- Kd [1]: 0.194 nM
- t1/2 [1]: 46 min
- IC50 [4]: 0.17 nM
- IC50 [3]: 0.044 nM

B5: H4H1804N (antibody, human IgG4 S228P, V domains shown)
VH: QVQLHQWGAGLLKPSETLSLTCAVSGVSFSDYHWAWIRQSPGKGLEWIGDINHRGRTNYNPSLKSRVTISLDTSGNPFSLKLTSVTAADTAVYYCARDFPNWVFDSWGQGILVTVSS
VL: EIVLSQSPGTLSLSPGERATLSCRASQSVSSSFLAWYQQYPGQAPRLLIYGASRRATGIPDRFRGSGSGTDFTLTISRLEPEDFAVYYCQQYGSSPLTFGGGTKVENK
notes: human IgG4(S108P) form of H2M1804N
- IC50, reporter + 10,000 TL1A cells [5]: 3.99 nM
- % Blocking IFN-g, D1, 1 ug/ml mAb [2]: 95%
- % Blocking IFN-g, D1, 3 ug/ml mAb [2]: 100%
- % Blocking IFN-g, D2, 1 ug/ml mAb [2]: 100%
- % Blocking IFN-g, D2, 3 ug/ml mAb [2]: 100%
- % Blocking IFN-g, D3, 1 ug/ml mAb [2]: 80%
- % Blocking IFN-g, D3, 3 ug/ml mAb [2]: 95%
- % Blocking IFN-g, D4, 1 ug/ml mAb [2]: 90%
- % Blocking IFN-g, D4, 3 ug/ml mAb [2]: 100%
- % Blocking IFN-g, D5, 1 ug/ml mAb [2]: 100%
- % Blocking IFN-g, D5, 3 ug/ml mAb [2]: 100%
- % Blocking IFN-g, D6, 1 ug/ml mAb [2]: 50%
- % Blocking IFN-g, D6, 3 ug/ml mAb [2]: 100%
- % Blocking IFN-g, D7, 1 ug/ml mAb [2]: 10%
- % Blocking IFN-g, D7, 3 ug/ml mAb [2]: 100%
- % Blocking IFN-g, D8, 1 ug/ml mAb [2]: 100%
- % Blocking IFN-g, D8, 3 ug/ml mAb [2]: 100%
- % Blocking IFN-g, D9, 1 ug/ml mAb [2]: 50%
- % Blocking IFN-g, D9, 3 ug/ml mAb [2]: 100%
- % Blocking IFN-g, D10, 1 ug/ml mAb [2]: 0%
- % Blocking IFN-g, D10, 3 ug/ml mAb [2]: 80%

B6: H4H1750P (antibody, human IgG4 S228P, V domains shown)
VH: QVQLVESGGGVVQPGRSLRLSCVASGFTFSNYGMHWVRQAPGKGLEWVAVISYDGNNDLYSDSVKGRFTISRDNAKNALSLQMTSLRAEDTAVYYCARDSTMTPYYYHGIDVWGQGTTVTVSA
VL: DIQMTQSPSSLSASVGDRVTITCRASQDIRNDLGWYQQKPGKAPKRLIYAASSLQSGVPSRFSGSGSGTDFTLTISSLQPEDFATYYCLQHNSYPPTFGQGTKVEIK
- IC50 [4]: 0.626 nM
- IC50 [3]: 0.589 nM

B7: H4H1719P (antibody, human IgG4 S228P, V domains shown)
VH: EVQLVESGGGLVQPGRSLRLSCVASGFTFQDYAMHWVRQAPGKGLEWVSGINWISDDMGYADSVMGRFTISRDNAKNSLYLQMDSLRAEDTALYYCAKDKGLRFLDYVMDVWGQGTTVTVSA
VL: DIVMTQSPLSLPVTPGEPASISCRSTQSLLHRNGHNYLHWYLHKPGQSPQLLIHLGSNRASGVPDRFSGSGSGTDFTLKISRVEAEDVGVYYCMQALQTPYTFGQGTKLEIK
- IC50 [4]: 0.045 nM
- IC50 [3]: 0.023 nM

B8: H4H1738P (antibody, human IgG4 S228P, V domains shown)
VH: EVQLVESGGALVKPGGSLRLSCAVSGFTFINDWMNWVRQAPGKGLEWVGRIKSTTDGGTTDDAAPVKGRFTISRDDSKNTLYLQMNSLKTEDTAVYYCTRDRNRQRNYFYDGMDVWGQGTTVTVSA
VL: B7 VL with L9V, T26S, S28R, R32N, H35N, H39D, H43Q, H54Y, I80V
- IC50 [4]: 0.15 nM
- IC50 [3]: 0.152 nM

B9: H4H1681N (antibody, human IgG4 S228P, V domains shown)
VH: EVQLLESGGGLVQPGKSLRLSCAVSGFTFSTYGMNWVRQAPGKGLEWVSSISGTGRTTYHADSVQGRFTVSRDNSKNILYLQMNSLRADDTAVYFCTKERGDYYYGVFDYWGQGTLVTVSS
VL: DIQMTQSPSTLSASVGDRVTITCRASQTISSWLAWYQQTPEKAPKLLIYAASNLQSGVPSRFSGSGSGTEFTLTISSLQPDDFATYYCQQYHRSWTFGQGTKVEIT
- binding result [1]: no binding (tested: up to 100 nM)

B10: H4H1742P (antibody, human IgG4 S228P, V domains shown)
VH: EVQLVESGGGLVQPGGSLRLSCAASGFTFSNYVMNWVRQAPGKGLEWVSVISGSGGSTHYADSVKGRFTISRDNSKDALYLQMNSLRAEDTAVYYCAKGPLEAYYYYNGMDVWGQGTTVTVSS
VL: DIQLTQSPSFLSASVGDRVTITCWASQAISSYLAWYQHKPGRAPKLLIYSTSTLQSGVPSRFSGSGSGTEFTLTISSLQPEDFATYYCQQLNSYPTFGQGTKLEIK
- IC50 [4]: 0.231 nM
- IC50 [3]: 0.214 nM
